# Measurements: paper PMC2175144 (The Journal of Cell Biology, 2000)
# B1: L1 FN-like repeats 1-3 (FN1-3) fusion protein, as run on SDS-PAGE (domain or fragment, human, UniProt P32004 615-916, looked up)
# chain: VPRLVLSDLHLLTQSQVRVSWSPAEDHNAPIEKYDIEFEDKEMAPEKWYSLGKVPGNQTSTTLKLSPYVHYTFRVTAINKYGPGEPSPVSETVVTPEAAPEKNPVDVKGEGNETTNMVITWKPLRWMDWNAPQVQYRVQWRPQGTRGPWQEQIVSDPFLVVSNTSTFVPYEIKVQAVNSQGKGPEPQVTIGYSGEDYPQAIPELEGIEILNSSAVLVKWRPVDLAQVKGHLRGYNVTYWREGSQRKHSKRHIHKDHVVVPANTTSVILSGLRPYSSYHLEVQAFNGRGSGPASEFTFSTPEG
# B2: L1 third FN-like repeat (FN3), GST fusion protein, wild type (domain or fragment, human, UniProt P32004 814-916, looked up)
# chain: AIPELEGIEILNSSAVLVKWRPVDLAQVKGHLRGYNVTYWREGSQRKHSKRHIHKDHVVVPANTTSVILSGLRPYSSYHLEVQAFNGRGSGPASEFTFSTPEG
# Tests used:
# [1] = biological target: L1 FN3 putative C-C′ loop peptide …^852, wild type (human); assay: SDS-PAGE of peptides
# [2] = biological target: the molecule itself; assay: SDS-PAGE without boiling, immunoblot
# [3] = biological target: the molecule itself; assay: SEC
molecule,measurement,setting,value
"L1 FN3 putative C-C′ loop peptide …^852, wild type",stoichiometry N,[1],3
B1,stoichiometry N,[2],3
B2,stoichiometry N,[3],≥ 3
